Experimental data published in PMC5799202, “Eis, a novel family of arylalkylamine N-acetyltransferase (EC 2.3.1.87)” (Scientific Reports, 2018).
Read-outs that look alike come from different tables or passages of the source.

Columns and labels:
Eis_Mtb = biological target: T1, Eis_Mtb (Mycobacterium tuberculosis, UniProt P9WFK7); assay: dead-end inhibition kinetics, DTNB acetyltransferase assay, purified enzyme; assay type: biochemical
T1 construct: gene eis

[1] = system: CCC(=O)SCCNC(=O)CCNC(=O)[C@H](O)C(C)(C)COP(=O)(O)OP(=O)(O)OC[C@H]1O[C@@H](n2cnc3c(N)ncnc32)[C@H](O)[C@@H]1OP(=O)(O)O; assay: purified protein
[2] = system: CC(=O)SCCNC(=O)CCNC(=O)[C@H](O)C(C)(C)COP(=O)(O)OP(=O)(O)OC[C@H]1O[C@@H](n2cnc3c(N)ncnc32)[C@H](O)[C@@H]1OP(=O)(O)O; assay: purified protein; conditions: acetyl-CoA binding first followed by histamine (ordered sequential mechanism)
NCCc1c[nH]cn1 = assay: purified protein
[3] = acetyl-CoA binds after acetyl-CoA to form a precatalytic ternary complex

T1 sequence (P9WFK7 2-402): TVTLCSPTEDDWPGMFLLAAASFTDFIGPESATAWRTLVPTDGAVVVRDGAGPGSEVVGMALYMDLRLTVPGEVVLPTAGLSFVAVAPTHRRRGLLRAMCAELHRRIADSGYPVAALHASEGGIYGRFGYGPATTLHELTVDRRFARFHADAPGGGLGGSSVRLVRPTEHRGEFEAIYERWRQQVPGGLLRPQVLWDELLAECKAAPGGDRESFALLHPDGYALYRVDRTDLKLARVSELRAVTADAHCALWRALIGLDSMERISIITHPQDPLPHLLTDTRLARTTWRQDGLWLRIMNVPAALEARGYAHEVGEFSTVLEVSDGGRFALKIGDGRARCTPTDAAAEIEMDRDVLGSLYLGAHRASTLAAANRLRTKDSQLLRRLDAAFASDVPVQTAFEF

CCCCCCCC/C=C\CCCCCCCC(=O)SCCNC(=O)CCNC(=O)[C@H](O)C(C)(C)COP(=O)(O)OP(=O)(O)OC[C@H]1O[C@@H](n2cnc3c(N)ncnc32)[C@H](O)[C@@H]1OP(=O)(O)O [oleoyl-CoA] gave a Ki (Eis_Mtb) of 0.268 ± 0.0684 µM.

For “Eis_Msm (Mycolicibacterium smegmatis MC2 155)”, the Km [1] was 98 ± 23 µM.

For “Eis_Mtb (Mycobacterium tuberculosis H37Rv)”, the Km [2] was “(1.2 ± 0.27) × 10^2 μM”, the kcat [2] was 5.6 ± 0.2 s⁻¹ and the kcat/Km [2] was 52000 ± 13000 M⁻¹ s⁻¹. It also gave a Km [1] of 47 ± 10 µM, a kcat [1] of 0.6 ± 0.1 s⁻¹ and a kcat/Km [1] of 14000 ± 4000 M⁻¹ s⁻¹. The Km (NCCc1c[nH]cn1) was “(28 ± 5.2) × 10^2 μM”, the kcat (NCCc1c[nH]cn1; [3]) was 0.5 ± 0.04 s⁻¹ and the kcat/Km (NCCc1c[nH]cn1; [3]) was 170 ± 83 M⁻¹ s⁻¹.

With OCCc1ccc(O)cc1 [tyrosol] the Ki (Eis_Mtb; read-out: Ki) was 175 ± 48.7 µM.
